As usually defined, the Kd is the equilibrium constant for the complex coming apart. The low end stands for a tighter complex, the high end for a looser complex.

Assay [1] addresses T1, Soluble Flag-tagged LTα1β2 (UniProt P01374 35-205, limits assumed).
T1 construct: Biacore ligand captured on the anti-Flag antibody M2; the whole LTβ entry is named here; also called Ligand
T1 sequence 1: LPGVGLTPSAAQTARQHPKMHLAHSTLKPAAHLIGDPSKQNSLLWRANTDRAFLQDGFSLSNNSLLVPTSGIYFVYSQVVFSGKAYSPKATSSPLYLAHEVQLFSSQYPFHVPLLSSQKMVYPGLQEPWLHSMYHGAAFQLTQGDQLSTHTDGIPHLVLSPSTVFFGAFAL
T1 sequence 2: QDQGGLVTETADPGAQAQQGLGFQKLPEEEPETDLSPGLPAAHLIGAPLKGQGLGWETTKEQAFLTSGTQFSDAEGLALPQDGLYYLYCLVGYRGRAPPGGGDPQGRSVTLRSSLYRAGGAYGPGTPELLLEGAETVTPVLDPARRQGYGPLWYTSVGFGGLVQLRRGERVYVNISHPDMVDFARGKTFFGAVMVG
Description: SPR (Biacore 3000), Flag-LTα1β2 captured on anti-Flag M2; LTβR binding site 1.

Assay [2] addresses T1, Soluble Flag-tagged LTα1β2. Description: SPR (Biacore 3000), Flag-LTα1β2 captured on anti-Flag M2; LTβR binding site 2.

B1: monomeric LTβR (receptor, UniProt P36941 31-227, looked up)
chain: QAVPPYASENQTCRDQEKEYYEPQHRICCSRCPPGTYVSAKCSRIRDTVCATCAENSYNEHWNYLTICQLCRPCDPVMGLEEIAPCTSKRKTQCRCQPGMFCAAWALECTHCELLSDCPPGTEAELKDEVGKGNNHCVPCKAGHFQNTSSPSARCQPHTRCENQGLVEAAPGTAQSDTTCKNPLEPLPPEMSGTMLM
notes: Injected at 20 µM in the Biacore assay; also called LTbR
On to B1, for which the values for the Kd in assay [1] and in assay [2] were about 50 nM and about 1500 nM, respectively.

For the origin of these results see patent US20140079716A1 (Biogen, published 2014).
